In patent publication US20190127480A1 (Regeneron, published 2019):
Numbering of substitutions follows the chain as printed. Each block holds one binder with its values, some of them ahead of it.

What was measured:
[1] = target: human CD3 expressed on cells (Jurkat cells; human T-cells of PBMC) (human, UniProt P09693 23-182; P20963 22-164); assay: cell-based or functional assay
[2] = target: T1, human PSMA expressed with an N-terminal hexahistidine tag (6h.hPSMA, R&D) (human, UniProt Q04609 44-750); assay: SPR Biacore T-200, 37 C, antibody-capture (anti-human Fc), 6h.hPSMA as analyte
T1 construct: Bought soluble protein; also called soluble human PSMA; human PSMA protein
Description: In this example, anti-PSMA antibodies were assessed for their ability to bind to human PSMA. […] Measurements were conducted on a Biacore™ T-200 instrument (GE Healthcare).
Briefly, a CM5 Biacore™ sensor surface was derivatized via amine coupling with a monoclonal mouse anti-human Fc antibody (GE, # BR-1008-39) or monoclonal goat anti-mouse Fc antibody (GE, # BR-1008-38) to capture purified anti-PSMA antibodies. Binding studies were performed in HBSP++ buffer composed of 0.01M HEPES, 0.15M NaCl, 2 mM Ca²⁺, 2 mM Mg²⁺, 0.05% v/v Surfactant P20, pH7.4. Varying concentrations of human PSMA expressed with an N-terminal hexahistidine tag (6h.hPSMA, R&D) prepared in HBSP++ running buffer (ranging from 50 to 0.78 nM, 4-fold dilutions) were injected over the anti-PSMA antibody captured surface at a flow rate of 30 μL/minute. Antibody-reagent association was monitored for 2 minutes while dissociation in HBSP++ running buffer was monitored for 8 minutes.
Kinetic association (kₐ) and dissociation (kd) rate constants were determined by fitting the real-time sensorgrams to a 1:1 binding model using Scrubber 2.0c curve fitting software. Binding dissociation equilibrium constants (KD) and dissociative half-lives (t½) were calculated from the kinetic rate constants as: KD (M)=kd/kₐ; and t_{1/2} (min)=(ln 2/(60*kd).

human CD3 expressed on cells (Jurkat cells; human T-cells of PBMC), sequence (chain, as listed by the source, chain 1 of 4): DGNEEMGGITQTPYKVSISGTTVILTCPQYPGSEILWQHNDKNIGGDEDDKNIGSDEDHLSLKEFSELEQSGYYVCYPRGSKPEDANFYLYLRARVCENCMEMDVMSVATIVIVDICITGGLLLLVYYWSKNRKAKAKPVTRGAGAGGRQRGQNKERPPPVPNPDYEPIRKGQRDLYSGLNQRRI
human CD3 expressed on cells (Jurkat cells; human T-cells of PBMC), sequence (chain, as listed by the source, chain 2 of 4): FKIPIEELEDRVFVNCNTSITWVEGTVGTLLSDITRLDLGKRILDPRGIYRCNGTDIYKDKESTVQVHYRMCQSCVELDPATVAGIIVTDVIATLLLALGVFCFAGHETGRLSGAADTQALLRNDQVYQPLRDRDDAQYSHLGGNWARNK
human CD3 expressed on cells (Jurkat cells; human T-cells of PBMC), sequence (P09693 23-182, chain 3 of 4): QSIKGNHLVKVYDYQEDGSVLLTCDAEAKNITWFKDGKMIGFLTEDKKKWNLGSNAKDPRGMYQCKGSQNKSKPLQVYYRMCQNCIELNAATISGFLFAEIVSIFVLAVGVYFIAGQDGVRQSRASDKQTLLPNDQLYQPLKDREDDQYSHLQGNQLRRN
human CD3 expressed on cells (Jurkat cells; human T-cells of PBMC), sequence (P20963 22-164, chain 4 of 4): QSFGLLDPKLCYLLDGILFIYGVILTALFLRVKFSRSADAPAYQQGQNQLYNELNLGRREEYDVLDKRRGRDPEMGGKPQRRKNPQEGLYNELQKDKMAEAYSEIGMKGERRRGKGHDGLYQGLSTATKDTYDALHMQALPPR
T1 sequence (Q04609 other isoform, or with tags, fused parts or gaps limits assumed): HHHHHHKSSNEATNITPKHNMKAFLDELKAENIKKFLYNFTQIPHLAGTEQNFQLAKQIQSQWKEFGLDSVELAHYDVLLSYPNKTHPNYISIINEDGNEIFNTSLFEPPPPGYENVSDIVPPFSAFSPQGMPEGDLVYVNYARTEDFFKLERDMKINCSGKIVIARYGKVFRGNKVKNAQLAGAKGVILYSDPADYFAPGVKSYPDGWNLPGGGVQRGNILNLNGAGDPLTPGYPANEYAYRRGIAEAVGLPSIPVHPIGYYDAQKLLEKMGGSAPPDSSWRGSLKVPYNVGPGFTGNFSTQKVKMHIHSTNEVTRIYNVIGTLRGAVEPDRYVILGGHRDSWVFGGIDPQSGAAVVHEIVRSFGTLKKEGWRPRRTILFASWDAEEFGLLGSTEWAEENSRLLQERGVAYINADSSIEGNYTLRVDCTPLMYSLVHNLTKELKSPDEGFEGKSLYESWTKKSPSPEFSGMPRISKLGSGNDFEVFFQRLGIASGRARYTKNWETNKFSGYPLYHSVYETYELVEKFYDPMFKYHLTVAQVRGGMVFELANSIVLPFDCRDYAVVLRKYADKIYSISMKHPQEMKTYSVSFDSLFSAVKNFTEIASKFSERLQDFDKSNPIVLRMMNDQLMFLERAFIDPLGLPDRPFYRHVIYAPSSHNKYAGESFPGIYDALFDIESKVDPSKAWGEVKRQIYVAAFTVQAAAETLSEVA

B1: H2M2689N (antibody, mouse IgG2, V domains shown)
VH: QVQLVESGGGVVQPGRSLRLSCAASGFTFSRKGMHWVRQAPVKGLEWVAVISYDGSNKYYADSVKGRFTISRDNSKNTLYLQMNSLTAEDTAVYYCAKEGGHDYGGTFDYWGQGTLVTVSS
VL: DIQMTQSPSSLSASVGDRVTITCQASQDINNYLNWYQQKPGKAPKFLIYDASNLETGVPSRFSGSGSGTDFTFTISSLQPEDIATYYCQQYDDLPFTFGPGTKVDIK
U937 Cytotoxicity Human T-cells [1]: 0 pM

Kd [2]: 75.6 nM | koff [2]: 0.00974 s⁻¹ | kon [2]: 129000 M⁻¹ s⁻¹ | t1/2 [2]: 1.2 min
B2: H1H11805P2 (antibody, human IgG1, V domains shown)
VH: EVQLVESGGGLVQPGGSLRLSCVVSGFTFNNYWMSWVRQAPGKGLEWVANIKKDGSEKYYVDSVKGRFTISRDNAKNSLYLQMNSLRAEDTAVYYCARDIMATIIDWGQGTLVTVSS
VL: DIQMTQSPSSLSASVGDSVTITCRASQSINNYLNWYQQKPGKAPKLLIYTASSLLSGVPSRFSGSGSGTDFTLTISGLHPEDFATYFCQQSFSTPPITFGQGTRLDIK
notes: human IgG1

Kd [2]: 1.99 nM | koff [2]: 0.000471 s⁻¹ | kon [2]: 237000 M⁻¹ s⁻¹ | t1/2 [2]: 24.5 min
B3: H1H11838P2 (antibody, human IgG1, V domains shown)
VH: QVQLVESGGGVVQPGRSLRLSCAASGFTFSSYGMHWVRQAPGKGLEWVAFMSYDGSNKFYSDSVKGRFTISRDNSRKMLFLQMNNLRAEDTAVYYCARDQYYDFLTDHGVFDYWGQGTLVTVSS
VL: B2 VL
notes: human IgG1

Kd [2]: ≤ 0.0563 nM | koff [2]: ≤ 1e-05 s⁻¹ | kon [2]: 178000 M⁻¹ s⁻¹ | t1/2 [2]: ≥ 1160 min
B4: H1H11808P2 (antibody, human IgG1, V domains shown)
VH: QVQLVESGGGVVQPGRSLRLSCAASGFPFNSYGMHWVRQAPGKGLEWVAVISYDGSNRYYADSVKGRFTISRDNSKYTLDLHVSSLTTDDTAVYYCARDRRYGKWEQLYPDYLGQGTLVTVSS
VL: B2 VL
notes: human IgG1

Kd [2]: 14 nM | koff [2]: 0.00246 s⁻¹ | kon [2]: 175000 M⁻¹ s⁻¹ | t1/2 [2]: 4.7 min
B5: H1H11835P2 (antibody, human IgG1, V domains shown)
VH: EVQLVESGGGLVQSGGSLRLSCEASGFTFSNYWMTWIRQGPGKGLEWVANIKPDGTENYYVDSVKGRFTISRDNARNSLYLQMTSLKAEDTAVYYCGRMIQFVINIWGQGTLVTVSS
VL: B2 VL
notes: human IgG1

B6: H2M2690N (antibody, mouse IgG2, V domains shown)
VH: EVQLVESGGGLVQPGRSLRLSCAASGFTFDDYTMHWVRQAPGKGLEWVSGISWNSGSIGYADSVKGRFTISRDNAKKSLYLQMNSLRAEDTALYYCAKDNSGYGHYYYGMDVWGQGTTVTVAS
VL: EIVMTQSPATLSVSPGERATLSCRASQSVSSNLAWYQQKPGQAPRLLIYGASTRATGIPARFSGSGSGTEFTLTISSLQSEDFAVYYCQHYINWPLTFGGGTKVEIK
U937 Cytotoxicity Human T-cells [1]: 27.9 pM

B7: H2M2707N (antibody, mouse IgG2, V domains shown)
VH: QVQLVESGGGVVQPGRSLRLSCIASGFTFRSYGMHWVRQAPGKGLEWVAMIYYDGNNKYYADSVRGRFTISRDNSKNTLYLQMNSLRADDTAVYFCARGPGYNWLDPWGQGTLVTVSS
VL: B6 VL with H90Q, I92N, W94R
U937 Cytotoxicity Human T-cells [1]: 7.21 pM

B8: H2M2705N (antibody, mouse IgG2, V domains shown)
VH: B7 VH with S21A, I23V, E46Q, N56K, S85N, A88V, D89E, V93M
VL: B6 VL with S28R, V29I, I58S, E70D, F83V, H90Q, Y91H, I92H
U937 Cytotoxicity Human T-cells [1]: 1.73 pM

B9: H2M2691N (antibody, mouse IgG2, V domains shown)
VH: B6 VH
VL: B6 VL
U937 Cytotoxicity Human T-cells [1]: 23.4 pM

B10: H2M2706N (antibody, mouse IgG2, V domains shown)
VH: B7 VH with I23A, G33A, I51V, K58Q
VL: B6 VL with S31R, E70D, H90Q, I92N, E105V
U937 Cytotoxicity Human T-cells [1]: 7.91 pM

B11: H1M2692N (antibody, mouse IgG1, V domains shown)
VH: EVQLVESGGGLVQPGGSLRLSCAASGFSFDDYTMHWVRQPPGKGLEWVSGISWNSGSIGYADSVKGRFTISRDNAKNSLYLQMNSLRAGDTALYYCAKDNSGYGYYYYYGMDVWGQGTTVTVSS
VL: B6 VL with H90Q, I92Y
U937 Cytotoxicity Human T-cells [1]: 359 pM
